In paper PMC4339303:

How the values were obtained:
Assay in all cases: proximity ligation
[1] = target: single-mutant V5-RTEL1^R1237H (mouse) (mouse)
[2] = target: double-mutant V5-RTEL1^C1252A/C1255A (mouse) (mouse)
[3] = target: full-length WT V5-RTEL1 (mouse) (mouse)
Sequence of full-length WT V5-RTEL1 (mouse) (mouse) (Q0VGM9 whole entry): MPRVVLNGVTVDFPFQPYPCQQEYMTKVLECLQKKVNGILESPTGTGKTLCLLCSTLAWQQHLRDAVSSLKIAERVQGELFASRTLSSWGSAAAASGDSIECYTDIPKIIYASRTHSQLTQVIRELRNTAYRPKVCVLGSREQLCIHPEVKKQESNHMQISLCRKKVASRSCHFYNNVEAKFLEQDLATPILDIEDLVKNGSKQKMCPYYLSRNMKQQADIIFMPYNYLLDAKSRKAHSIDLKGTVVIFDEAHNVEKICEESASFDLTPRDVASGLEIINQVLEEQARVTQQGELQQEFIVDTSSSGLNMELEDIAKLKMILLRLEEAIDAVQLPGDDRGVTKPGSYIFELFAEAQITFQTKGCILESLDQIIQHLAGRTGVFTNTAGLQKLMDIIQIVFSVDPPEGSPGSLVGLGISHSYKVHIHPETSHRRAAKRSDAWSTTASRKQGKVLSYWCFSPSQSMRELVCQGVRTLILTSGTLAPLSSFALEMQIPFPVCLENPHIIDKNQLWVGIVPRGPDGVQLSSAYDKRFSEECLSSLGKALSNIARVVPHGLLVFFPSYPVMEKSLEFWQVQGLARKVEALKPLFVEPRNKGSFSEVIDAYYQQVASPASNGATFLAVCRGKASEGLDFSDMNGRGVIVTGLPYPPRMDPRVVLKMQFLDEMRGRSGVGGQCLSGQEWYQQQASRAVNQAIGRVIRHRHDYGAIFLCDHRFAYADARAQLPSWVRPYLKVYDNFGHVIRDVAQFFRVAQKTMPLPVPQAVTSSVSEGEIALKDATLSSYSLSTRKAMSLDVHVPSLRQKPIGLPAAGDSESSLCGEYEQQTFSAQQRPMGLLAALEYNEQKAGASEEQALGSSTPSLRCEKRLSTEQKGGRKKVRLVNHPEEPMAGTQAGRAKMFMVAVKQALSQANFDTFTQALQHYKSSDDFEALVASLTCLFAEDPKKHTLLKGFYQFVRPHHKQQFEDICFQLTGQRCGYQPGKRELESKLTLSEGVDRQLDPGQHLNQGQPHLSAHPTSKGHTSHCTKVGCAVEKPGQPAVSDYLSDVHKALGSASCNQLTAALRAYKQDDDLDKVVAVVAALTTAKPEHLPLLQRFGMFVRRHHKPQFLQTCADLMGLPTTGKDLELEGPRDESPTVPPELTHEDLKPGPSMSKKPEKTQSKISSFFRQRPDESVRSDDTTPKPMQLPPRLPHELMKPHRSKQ

With “endogenous PCNA (proliferating cell nuclear antigen) (from UniProt P17918 1-261) (natural protein)” as the substance, how does the PLA foci per nucleus (PLA foci per nucleus) [1] read?
Its PLA foci per nucleus (PLA foci per nucleus) is 13.4.

What about the PLA foci per nucleus (PLA foci per nucleus) [2] of the same substance?
Its PLA foci per nucleus (PLA foci per nucleus) is 11.6.

And the PLA foci per nucleus (foci per nucleus) [3]?
Its PLA foci per nucleus (foci per nucleus) is 11.5.
